Reference: paper PMC11341690

Assays:
[1] = biological target: PglX (Salmonella enterica serovar Typhimurium ST313 strain D23580 BREX methyltransferase), wild type (Salmonella enterica serovar Typhimurium ST313 strain D23580); experiment: mass photometry; PglX proteins with equimolar Ocr; TwoMP (Refeyn); 1 uM for 1 h on ice in 10 mM Tris pH 7.9, 25 mM NaCl, 0.5 uM SAM, 0.5 uM MgCl2, then diluted to 5 nM
[2] = biological target: T1, PglX (PglX-SAM) (Salmonella enterica, UniProt A0A6C7IK61); conditions: PglX incubated with 1 mM SAM before crystallisation; methyltransferase pocket between GSG and NPPY motifs; no DNA
T1 construct: gene STMMW_44401

[3] = biological target: T2, PglX-SAM:Ocr complex (Salmonella enterica, UniProt A0A6C7IK61); conditions: PglX incubated with 1 mM SAM, then Ocr, before crystallisation; same methyltransferase pocket
T2 construct: gene STMMW_44401

[4] = biological target: T3, PglX NTD (Salmonella D23580 (S. Typhimurium), UniProt A0A6C7IK61 1-661); experiment: mass photometry; NTD peak may include free DNA; mass photometry (Refeyn); buffer, salt, pH and temperature not given in the material; conditions: protein: recombinant; tags: untagged (His/SUMO tag removed by hSENP2); blunt
T3 sequence: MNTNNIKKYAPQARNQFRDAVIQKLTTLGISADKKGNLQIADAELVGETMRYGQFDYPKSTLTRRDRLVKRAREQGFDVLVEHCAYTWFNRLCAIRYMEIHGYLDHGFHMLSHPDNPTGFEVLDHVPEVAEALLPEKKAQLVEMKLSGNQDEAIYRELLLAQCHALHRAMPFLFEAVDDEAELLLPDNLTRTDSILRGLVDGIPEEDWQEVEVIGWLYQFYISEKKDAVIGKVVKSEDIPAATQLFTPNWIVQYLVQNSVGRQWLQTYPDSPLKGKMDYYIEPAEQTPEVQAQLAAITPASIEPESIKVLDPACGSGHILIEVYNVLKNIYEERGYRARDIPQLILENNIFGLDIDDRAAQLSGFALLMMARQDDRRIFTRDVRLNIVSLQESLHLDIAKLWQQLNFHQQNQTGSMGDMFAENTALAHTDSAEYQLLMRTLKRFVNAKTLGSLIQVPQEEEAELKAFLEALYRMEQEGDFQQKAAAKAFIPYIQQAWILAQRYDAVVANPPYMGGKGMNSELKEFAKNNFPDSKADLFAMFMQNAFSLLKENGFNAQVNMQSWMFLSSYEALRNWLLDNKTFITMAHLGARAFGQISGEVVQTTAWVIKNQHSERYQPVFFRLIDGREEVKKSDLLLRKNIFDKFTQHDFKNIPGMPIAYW

[5] = biological target: T4, PglX WT (Salmonella D23580 (S. Typhimurium), UniProt A0A6C7IK61 1-1225); experiment: mass photometry; 1:1 and 2:1 complexes; mass photometry (Refeyn); buffer, salt, pH and temperature not given in the material; conditions: protein: recombinant; tags: untagged (His/SUMO tag removed by hSENP2); blunt
T4 sequence: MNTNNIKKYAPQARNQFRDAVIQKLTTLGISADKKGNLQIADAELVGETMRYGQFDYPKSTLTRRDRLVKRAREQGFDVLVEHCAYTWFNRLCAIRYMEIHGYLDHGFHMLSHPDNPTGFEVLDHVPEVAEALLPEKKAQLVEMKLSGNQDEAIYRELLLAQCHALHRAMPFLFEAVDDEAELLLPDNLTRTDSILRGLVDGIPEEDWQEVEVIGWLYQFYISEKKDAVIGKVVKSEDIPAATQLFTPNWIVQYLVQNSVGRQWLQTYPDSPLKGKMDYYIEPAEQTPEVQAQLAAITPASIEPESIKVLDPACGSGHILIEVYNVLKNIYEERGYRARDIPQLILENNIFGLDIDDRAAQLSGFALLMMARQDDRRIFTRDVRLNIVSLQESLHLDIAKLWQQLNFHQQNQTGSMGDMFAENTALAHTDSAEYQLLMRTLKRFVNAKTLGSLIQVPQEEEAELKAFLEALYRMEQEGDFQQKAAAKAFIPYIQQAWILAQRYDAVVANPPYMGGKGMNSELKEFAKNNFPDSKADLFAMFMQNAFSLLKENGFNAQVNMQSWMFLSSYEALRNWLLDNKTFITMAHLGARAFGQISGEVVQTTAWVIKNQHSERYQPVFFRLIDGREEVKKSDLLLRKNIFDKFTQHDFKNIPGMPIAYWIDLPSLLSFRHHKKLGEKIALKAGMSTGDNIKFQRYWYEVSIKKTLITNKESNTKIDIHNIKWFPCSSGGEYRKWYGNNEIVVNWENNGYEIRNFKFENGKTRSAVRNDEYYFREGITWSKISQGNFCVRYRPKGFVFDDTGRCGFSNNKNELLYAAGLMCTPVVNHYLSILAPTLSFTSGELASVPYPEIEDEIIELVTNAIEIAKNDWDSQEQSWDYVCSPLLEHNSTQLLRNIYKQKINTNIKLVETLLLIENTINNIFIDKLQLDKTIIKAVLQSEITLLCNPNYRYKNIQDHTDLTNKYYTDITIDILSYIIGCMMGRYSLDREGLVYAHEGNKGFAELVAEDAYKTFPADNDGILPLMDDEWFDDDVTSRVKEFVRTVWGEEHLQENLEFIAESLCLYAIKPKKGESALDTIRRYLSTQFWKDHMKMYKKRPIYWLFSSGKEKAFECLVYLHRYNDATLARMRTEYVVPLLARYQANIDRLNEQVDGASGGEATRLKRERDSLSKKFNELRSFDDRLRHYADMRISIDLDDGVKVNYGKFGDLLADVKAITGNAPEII

[6] = biological target: T4, PglX WT; experiment: mass photometry; 1:1, 2:1 and 3:1 complexes; non-specific; mass photometry (Refeyn); buffer, salt, pH and temperature not given in the material; conditions: protein: recombinant; tags: untagged (His/SUMO tag removed by hSENP2); blunt
[7] = biological target: T4, PglX WT; experiment: mass photometry; 1:1, 2:1 and 3:1 complexes; mass photometry (Refeyn); buffer, salt, pH and temperature not given in the material; conditions: protein: recombinant; tags: untagged (His/SUMO tag removed by hSENP2); blunt

Question: With “Ocr from phage T7 (DNA mimic, anti-restriction and anti-BREX protein) (from UniProt P03775 1-117) (natural protein)” as the molecule, how does the stoichiometry N (Ocr per PglX (1:2 PglX WT:Ocr)) [1] read?
Answer: 2

Question: What about the stoichiometry N (Ocr per PglX (2:2 PglX WT:Ocr)) [1] of the same molecule?
Answer: 1

Question: Which results are given for `C[S+](CC[C@H](N)C(=O)O)C[C@H]1O[C@@H](n2cnc3c(N)ncnc32)[C@H](O)[C@@H]1O` (stereo partly drawn) [SAM, S-adenosyl-L-methionine]?
Answer: X-ray crystal structure, 3.5 A [2]: crystallographic structure of Salmonella PglX bound to S-adenosyl-L-methionine (SAM), a co-factor for methylation; X-ray crystal structure, 3.5 A [3]: visible in the PglX-SAM:Ocr structure is a bound SAM molecule

B1: DNA 1 (TRB2180/TRB2181) (dsDNA)
DNA 1: GGTATCCGTTCGTCATAGGCTCAAAGCGTCTCCTGAGTCTCGGATCAGTACGAACTACCGGAACCAACACGACTGATCGTCTTCGGTGACCATTGCAACACTAGTATCTCGAGTGCCGTG
DNA 2: CACGGCACTCGAGATACTAGTGTTGCAATGGTCACCGAAGACGATCAGTCGTGTTGGTTCCGGTAGTTCGTACTGATCCGAGACTCAGGAGACGCTTTGAGCCTATGACGAACGGATACC
Question: Does B1 bind [4]?
Answer: no binding

Question: Does B1 bind [5]?
Answer: binds

B2: DNA 2 (TRB2182/TRB2183) (dsDNA)
DNA 1: GGTATCCGTTCGTCATAGGCTCAAAGCGTCTCCTGAGTCTCGGATCAGTACGAACTACCGGAACCAACACGAGATCAGGTCTTCGGTGACCATTGCAACACTAGTATCTCGAGTGCCGTG
DNA 2: CACGGCACTCGAGATACTAGTGTTGCAATGGTCACCGAAGACCTGATCTCGTGTTGGTTCCGGTAGTTCGTACTGATCCGAGACTCAGGAGACGCTTTGAGCCTATGACGAACGGATACC
Question: Does B2 bind [4]?
Answer: no binding

Question: Does B2 bind [5]?
Answer: binds

B3: DNA 4 (TRB2186/TRB2187) (dsDNA)
DNA 1: GGTATCCGTTCGTCATAGGCTCAAAGCGTCTCCTGAGTCTCGTGTACCTACGAACTACCGGAACCAACACGACAATACGTCTTCGGTGACCATTGCAACACTAGTATCTCGAGTGCCGTG
DNA 2: CACGGCACTCGAGATACTAGTGTTGCAATGGTCACCGAAGACGTATTGTCGTGTTGGTTCCGGTAGTTCGTAGGTACACGAGACTCAGGAGACGCTTTGAGCCTATGACGAACGGATACC
Question: Does B3 bind [6]?
Answer: binds

Question: Does B3 bind [4]?
Answer: no binding

B4: DNA 3 (TRB2184/TRB2185) (dsDNA)
DNA 1: GGTATCCGTTCGTCATAGGCTCAAAGCGTCTCCTGAGTCTCGGATCAGTACGAACTACCGGAACCAACACGACAATACGTCTTCGGTGACCATTGCAACACTAGTATCTCGAGTGCCGTG
DNA 2: CACGGCACTCGAGATACTAGTGTTGCAATGGTCACCGAAGACGTATTGTCGTGTTGGTTCCGGTAGTTCGTACTGATCCGAGACTCAGGAGACGCTTTGAGCCTATGACGAACGGATACC
Question: Does B4 bind [4]?
Answer: no binding

Question: Does B4 bind [7]?
Answer: binds
